This note sets out measurements from patent US8133978 (GlaxoSmithKline, dated 2012).

For test [1], the target named is T1, Human interleukin-18 (recombinant human IL-18) (human, UniProt Q14116 37-193).
T1 construct: also called hIL-18
T1 sequence: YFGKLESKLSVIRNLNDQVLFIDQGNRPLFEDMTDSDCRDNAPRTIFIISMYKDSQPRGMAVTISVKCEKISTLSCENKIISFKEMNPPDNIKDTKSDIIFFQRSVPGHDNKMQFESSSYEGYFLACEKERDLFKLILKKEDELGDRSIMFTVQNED
Briefly: ELISA, antibody on plate, human IL-18 captured, detected by 16D10; room temperature, in serum. Here is the method:
(§1) ELISA was carried out with the three Humanised H1 variants; H1L1, H1L2 and H1L3 to assess binding to human IL-18 at room temperature and at 37° C. in both human serum and in block solution (PBS 0.05% TWEEN with 1% BSA (w/v)). The Humanised antibody variants were immobilised on Nunc Maxisorp 96-well plates at 2.5 µg/ml. Capture of 5 ng/ml of recombinant human IL-18 was carried out either at room temperature or 37° C. in human serum or block solution. Anti-IL-18 mouse monoclonal antibody 16D10 was added. The bound mouse antibody was detected using anti-mouse kappa peroxidase conjugate (Serotec MCA 1291P). Representative EC50 values generated from the study data are illustrated in Table 9.

Test [2] addresses T2, Rhesus IL-18 (rhesus (rhesus/cynomolgus)).
T2 construct: also called Rhesus/Cynomolgus IL-18; rhesus/cynomolgus IL-18
Briefly: Rhesus IL18 binding ELISA, antibody titrated, OD 490 nm.

The target of test [3] is T2, Rhesus IL-18. Briefly: Rhesus IL-18 binding ELISA, antibody titrated, OD 490 nm. (In an ELISA, binding on a coated surface is turned into a signal by an enzyme label.)
Test [4] addresses T1, Human interleukin-18 (recombinant human …). Briefly: ELISA, antibody on plate, human IL-18 captured, detected by 16D10; 37 C, blocking buffer. Here is the method:
as §1

The target is the same in test [5]. Nature of the test: ELISA, antibody on plate, human IL-18 captured, detected by 16D10; room temperature, blocking buffer. Here is the method: as §1
Test [6] shares this target. Briefly: SPR, Biacore T100, Protein A capture, 37 C, mean n = 2. Here is the method: (§2) The methodology was basically the same as for the method used in Example 4a above; Protein A was immobilised on a CM5 chip at densities of between 2000-6000 RU's by primary amine coupling. Runs were carried out in HBS-EP (Biacore™). The anti-IL-18 antibodies were captured to densities of between 100-500 RUs, human IL-18 was passed over this captured surface at concentrations between 16-0.0625 nM, with 0 nM concentration (i.e., a buffer only injection of captured antibody) used for double referencing. Regeneration after each injection of IL-18 was by mild acidic elution using two injections of 10 mM glycine, pH1.5. […] The binding curves obtained were analysed using the analysis software inherent to the T100 machine using the 1:1 model of binding. Runs were carried out at the temperatures indicated.
Background: Surface plasmon resonance follows binding to a sensor surface in real time, without labels.

The target is the same in test [7]. Nature of the test: ELISA, human IL-18 captured by 16D10, antibody titrated. Here is the method: ELISA with all nine humanised variants was carried out at least 6 times using various batches of purified antibody preparation. FIGS. 4A-4C show representative data from one experiment which generated the EC50 value ranking illustrated in Table 7. Human IL-18 was immobilized on Nunc Maxisorp 96-well plates using 2.5 µg/ml of 16D10 (non-neutralising mouse monoclonal antibody) to capture 5 ng/ml of recombinant human IL-18. Anti-IL-18 humanised antibodies were added at various dilutions. Bound humanised antibodies were detected using anti-human IgG Fc specific peroxidase conjugate (Sigma A0170).

The target in test [8] is T2, Rhesus IL-18. Nature of the test: SPR, Biacore 3000, antibody captured on Protein A, 25 C. Here is the method:
(§3) Biacore™ kinetic analysis of the humanised 2C10 antibodies was carried out on a Biacore™ 3000 instrument using Protein A capture of the antibodies in HBS-EP buffer (Biacore™). Briefly, Protein A was immobilised on a CM5 chip by primary amine coupling, using manufacturers recommended protocol, to densities around 2000-4000 resonance units (RU's). Humanised antibody was then passed over the Protein A surface and captured to levels of around 200-500 RU's, after a period of stabilisation, IL-18 (human or Rhesus) was passed over the captured antibody surface at defined concentrations and binding sensorgrams were obtained. […] All curves were double referenced against a buffer injection instead of IL-18 and the data was fitted to the 1:1 binding model using the global fit parameters in BiaEval 4.1. Off-rate ranking experiments were set up using the same Protein A capture method, however, only a single concentration of IL-18 was used (10 nM). Whilst the data was fitted using the same binding model as the kinetic analysis, since only one concentration of analyte was used on the off-rate is reported, this value is useful for ranking rather than giving an exact kinetic measurement and was used as a way of selecting which antibodies would be further investigated.
Based upon these observations selected antibodies were investigated in greater detail for binding to human and Rhesus IL-18 at 37° C. The data shown in Table 4b for human IL-18 is the mean (and standard deviation) of six separate determinations.

For test [9], the target named is T1, Human interleukin-18 (recombinant human …). Briefly: SPR, Biacore T100, Protein A capture, 25 C, mean n = 3. Here is the method: as §2
These experiments were carried out as described above. Table 6 details the kinetic parameters obtained. […] H1L2 has a better on-rate (ka) than H1L1.

Test [10] has the same target. Briefly: ELISA, antibody on plate, human IL-18 captured, detected by 16D10; 37 C, in serum. Here is the method:
as §1

For test [11] the target is unchanged. Nature of the test: SPR, Biacore 3000, antibody captured on Protein A, 25 C. Here is the method: as §3, with “investigated. […]” for “investigated.”

B1: 2C10 rat-human chimera (chimaeric antibody 2C10c) (antibody, V domains shown)
VH: EVQLQQSGAELVRPGTSVKLSCKVSGEISTGYYFHFVRRRPGQGLEWIGRIDPEDDSTKYAERFKDRATLTAQTSSNTAYLNLSSLTSEDTATYFCTTWRIYRDSSGRPFYVMDAWGQGTLVTVSS
VL: DIQMTQSPASLSASLGETVSIECLASEDIYTYLTWYQQKPGKSPQLLIYGANKLQDGVPSRFSGSGSGTQYSLKISGIQPEDEGDYFCLQGSKFPLTFGSGTKLEIKR
notes: Rat 2C10 V regions joined to human IgG1 and kappa C regions; also called Chimera 2C10; 2C10 Chimera
Take B1: the concentration for a half-maximal effect (EC50) in test [1] stood at 7.3 ng/mL; in test [4], 3.79 ng/mL; in test [5], 3.81 ng/mL; in [7] it was 7 ng/mL; in [10], 10.1 ng/mL. For the same molecule, the “EC50 (read off the curve)” value in the test with Rhesus IL-18 [2] was about 20 ng/mL; with Rhesus IL-18 [3] it was about 10 ng/mL. In addition, the Kd in [6] worked out at 0.0229 nM; with Rhesus IL-18 [8], 0.0547 nM; in test [9], 0.0091 nM; in test [11] it was 0.0139 nM.

One may read the EC50 as the concentration giving half of the maximal effect. In general, EC50 (read off the curve) refers to the midpoint of the concentration-response curve. As a reminder, the Kd is a measure of binding affinity in units of concentration.
